In patent US20170037111A1, “Novel peptides and combination of peptides for use in immunotherapy against ovarian cancer and other cancers” (immatics biotechnologies GmbH, priority 2015, published 2017):

Target: HLA-A*02:01 (Homo sapiens, UniProt P04439, D140Y/D185E/D98H/E176V/E277Q/G131W/G231S/I119V/I121R/I166T/I218V/L300P/L318F/N151K/N90K/P208A/P217A/Q86G/Q94H/R138H/R169H/T345S)
Test: MHC binding assay (UV-ligand exchange, β2m ELISA, peptide exchange yield)
Settings: MHC class I binding score; binding to HLA-A*02:01 ranged by peptide exchange yield (UV-ligand exchange, β2m ELISA)
Method in brief: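 Peptide–HLA-A*02:01 complexes were formed by UV-mediated exchange of a UV-cleavable ligand for the test peptide. Exchange yield was measured by capturing complexes on streptavidin, detecting with HRP anti-β2m antibody (1 h, 37°C) and reading TMB absorbance at 450 nm.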

| Substance | Peptide exchange |
| --- | --- |
| 98 (LIIDQADIYL; listed as Homo sapiens) [compound 98] | ″+++″ (≧50% = +++) |
| 115 (AIAGAGILYGV; listed as Homo sapiens) [compound 115] | ″++″ (≧20% = ++) |
| 314 (ALIAEGIALV; listed as Homo sapiens) [compound 314] | ″+++″ (≧50% = +++) |
| 207 (GLTSTNAEV; listed as Homo sapiens) [compound 207] | ″++″ (≧20% = ++) |
| 331 (KVDTVWVNV; listed as Homo sapiens) [compound 331] | ″+++″ (≧50% = +++) |
| 179 (KVLNELYTV; listed as Homo sapiens) [compound 179] | ″+++″ (≧50% = +++) |
| 162 (YQQAQVPSV; listed as Homo sapiens) [compound 162] | ″+++″ (≧50% = +++) |
| 53 (KMIETDILQKV; listed as Homo sapiens) [compound 53] | ″++++″ (≧75% = ++++) |
| 192 (KMLDGASFTL; listed as Homo sapiens) [compound 192] | ″+++″ (≧50% = +++) |
| 257 (SIFSAFLSV; listed as Homo sapiens) [compound 257] | ″+++″ (≧50% = +++) |
| 125 (VQIHQVAQV; listed as Homo sapiens) [compound 125] | ″+++″ (≧50% = +++) |
| 297 (VLADIELAQA; listed as Homo sapiens) [compound 297] | ″+++″ (≧50% = +++) |
| 218 (SALEELVNV; listed as Homo sapiens) [compound 218] | ″++″ (≧20% = ++) |
| 344 (YLQDQHLLLTV; listed as Homo sapiens) [compound 344] | ″+++″ (≧50% = +++) |
| 280 (VLPDPEVLEAV; listed as Homo sapiens) [compound 280] | ″+++″ (≧50% = +++) |
| 130 (FLWNGEDSALL; listed as Homo sapiens) [compound 130] | ″+++″ (≧50% = +++) |
| 222 (NLIENVQRL; listed as Homo sapiens) [compound 222] | ″++″ (≧20% = ++) |
| 121 (GVVDPRAISVL; listed as Homo sapiens) [compound 121] | ″++″ (≧20% = ++) |
| 304 (MTLGQIYYL; listed as Homo sapiens) [compound 304] | ″+++″ (≧50% = +++) |

| Substance | Peptide exchange |
| --- | --- |
| 255 (VLASYNLTV; listed as Homo sapiens) [compound 255] | ″+++″ (≧50% = +++) |
| 295 (VLDRESPNV; listed as Homo sapiens) [compound 295] | ″+++″ (≧50% = +++) |
| 238 (YLISFQTHI; listed as Homo sapiens) [compound 238] | ″+++″ (≧50% = +++) |
| 341 (SQIALNEKLVNL; listed as Homo sapiens) [compound 341] | ″+++″ (≧50% = +++) |
| 332 (YLISELEAA; listed as Homo sapiens) [compound 332] | ″+++″ (≧50% = +++) |
| 223 (ALLENIALYL; listed as Homo sapiens) [compound 223] | ″+++″ (≧50% = +++) |
| 137 (TLVLTLPTV; listed as Homo sapiens) [compound 137] | ″++++″ (≧75% = ++++) |
| 195 (GLFADLLPRL; listed as Homo sapiens) [compound 195] | ″+++″ (≧50% = +++) |
| 146 (SLATAGDGLIEL; listed as Homo sapiens) [compound 146] | ″++″ (≧20% = ++) |
| 345 (VIWKALIHL; listed as Homo sapiens) [compound 345] | ″+++″ (≧50% = +++) |
| 289 (VLLEIEDLQV; listed as Homo sapiens) [compound 289] | ″++++″ (≧75% = ++++) |
| 176 (YLMEGSYNKVFL; listed as Homo sapiens) [compound 176] | ″++″ (≧20% = ++) |
| 64 (YAAPGGLIGV; listed as Homo sapiens) [compound 64] | ″++″ (≧20% = ++) |
| 302 (ALLQEGEVYSA; listed as Homo sapiens) [compound 302] | ″+++″ (≧50% = +++) |
| 320 (KMFEFVEPLL; listed as Homo sapiens) [compound 320] | ″++++″ (≧75% = ++++) |
| 335 (YSLSSVVTV; listed as Homo sapiens) [compound 335] | ″+++″ (≧50% = +++) |
| 264 (SLQEQLHSV; listed as Homo sapiens) [compound 264] | ″+++″ (≧50% = +++) |
| 261 (YVLEFLEEI; listed as Homo sapiens) [compound 261] | ″++″ (≧20% = ++) |
| 69 (FQLDPSSGVLVTV; listed as Homo sapiens) [compound 69] | ″+++″ (≧50% = +++) |

More lines, now with the values ahead:

| Peptide exchange | Substance |
| --- | --- |
| ″+++″ (≧50% = +++) | 507 (KLIDDQDISISL; listed as Homo sapiens) [compound 507] |
| ″+++″ (≧50% = +++) | 496 (FLVEKQPPQV; listed as Homo sapiens) [compound 496] |
| ″+++″ (≧50% = +++) | 551 (KLYESLLPFA; listed as Homo sapiens) [compound 551] |
| ″+++″ (≧50% = +++) | 370 (SLLQDLVSV; listed as Homo sapiens) [compound 370] |
| ″++″ (≧20% = ++) | 403 (KLYDRILRV; listed as Homo sapiens) [compound 403] |
| ″+++″ (≧50% = +++) | 492 (SLFDGFADGLGV; listed as Homo sapiens) [compound 492] |
| ″+++″ (≧50% = +++) | 635 (SLDSTLHAV; listed as Homo sapiens) [compound 635] |
| ″+++″ (≧50% = +++) | 608 (SLLSVSHAL; listed as Homo sapiens) [compound 608] |
| ″++″ (≧20% = ++) | 491 (GLNDRSDAV; listed as Homo sapiens) [compound 491] |
| ″++″ (≧20% = ++) | 590 (SLIEKLWQT; listed as Homo sapiens) [compound 590] |
| ″+++″ (≧50% = +++) | 609 (ALWKQLLEL; listed as Homo sapiens) [compound 609] |
| ″++++″ (≧75% = ++++) | 371 (FLQAHLHTA; listed as Homo sapiens) [compound 371] |
| ″+++″ (≧50% = +++) | 437 (SMAPGLVIQAV; listed as Homo sapiens) [compound 437] |
| ″+++″ (≧50% = +++) | 500 (SLMEDQVLQL; listed as Homo sapiens) [compound 500] |
| ″++″ (≧20% = ++) | 461 (VMFRTPLASV; listed as Homo sapiens) [compound 461] |
| ″+++″ (≧50% = +++) | 474 (YLDPALELGPRNV; listed as Homo sapiens) [compound 474] |
| ″+++″ (≧50% = +++) | 383 (ALLELENSVTL; listed as Homo sapiens) [compound 383] |
| ″+++″ (≧50% = +++) | 547 (TLDITPHTV; listed as Homo sapiens) [compound 547] |
| ″+++″ (≧50% = +++) | 484 (SLIEKVTQL; listed as Homo sapiens) [compound 484] |
| ″+++″ (≧50% = +++) | 357 (SMHDLVLQV; listed as Homo sapiens) [compound 357] |

| Peptide exchange | Substance |
| --- | --- |
| ″++″ (≧20% = ++) | 559 (VTVPPGPSL; listed as Homo sapiens) [compound 559] |
| ″++++″ (≧75% = ++++) | 611 (YLLDDGTLVV; listed as Homo sapiens) [compound 611] |
| ″++″ (≧20% = ++) | 548 (ALWENPESGEL; listed as Homo sapiens) [compound 548] |
| ″+++″ (≧50% = +++) | 457 (SLLPGNLVEKV; listed as Homo sapiens) [compound 457] |
| ″+++″ (≧50% = +++) | 529 (LLADELITV; listed as Homo sapiens) [compound 529] |
| ″+++″ (≧50% = +++) | 399 (YLFEPLYHV; listed as Homo sapiens) [compound 399] |
| ″+++″ (≧50% = +++) | 543 (GLLPTPITQQASL; listed as Homo sapiens) [compound 543] |
| ″+++″ (≧50% = +++) | 588 (SLLPLSHLV; listed as Homo sapiens) [compound 588] |
| ″++″ (≧20% = ++) | 513 (SLWPSPEQL; listed as Homo sapiens) [compound 513] |
| ″+++″ (≧50% = +++) | 601 (SAFPFPVTV; listed as Homo sapiens) [compound 601] |
| ″++++″ (≧75% = ++++) | 585 (ALWDLAADKQTL; listed as Homo sapiens) [compound 585] |
| ″+++″ (≧50% = +++) | 519 (GLLHLTLLL; listed as Homo sapiens) [compound 519] |
| ″+++″ (≧50% = +++) | 561 (YLQLTQSEL; listed as Homo sapiens) [compound 561] |
| ″+++″ (≧50% = +++) | 493 (GLLGEKTQDLIGV; listed as Homo sapiens) [compound 493] |
| ″+++″ (≧50% = +++) | 537 (TLAPGEVLRSV; listed as Homo sapiens) [compound 537] |
| ″++″ (≧20% = ++) | 381 (FIDEAYVEV; listed as Homo sapiens) [compound 381] |
| ″+++″ (≧50% = +++) | 361 (ALYELEGTTV; listed as Homo sapiens) [compound 361] |
| ″++″ (≧20% = ++) | 505 (SLAPGDVVRQV; listed as Homo sapiens) [compound 505] |
| ″+++″ (≧50% = +++) | 622 (RLLGEEVVRVLQA; listed as Homo sapiens) [compound 622] |
